The supplement of paper PMC10567573

B1: SCNN1D (parent)
chain: FYRLYQDLETHRLPCTSRCPRPCR
B2: RTN2 (parent)
chain: SERPLEDLRLRLDHLGWVARGTGS

Variants of: B1
Test: protein stability index of a GFP-peptide fusion (GPS, HEK-293T) (PSI 1-6); higher = more stable
Conditions: c terminus: a fixed tail appended
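Note: lentivirally expressed fusions sorted by FACS into six bins by GFP to DsRed ratio, PSI derived from sequencing read proportions per bin multiplied by bin number.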

Protein stability index: each site, then its substitutions
R12: P 2.64, Q 2.47, S 3.51, T 2.1, V 1.93, W 2, Y 1.78
L13: A 2.42, C 1.85, D 2.19, E 3.25, F 2.33, G 2.66, H 2.38, I 2.38, K 2.63, M 2.24, N 2.23, Q 2.03, R 3.39, S 2.67, T 2.97, W 2.21, Y 1.72
P14: A 2.01, C 1.44, D 2.06, E 2.39, F 1.79, G 2.3, H 1.97, I 1.53, K 1.89, L 3.27, M 1.6, N 1.96, Q 1.94, R 2.09, S 2.44, T 1.76, V 1.47, W 1.57, Y 1.45
C15: A 2.07, D 2.24, F 2.71, G 2.47, H 2.28, I 2.48, M 1.73, P 1.85, Q 1.76, R 2.3, S 2.64, T 2, W 1.75, Y 1.8
T16: A 1.98, C 1.66, D 2.79, E 2.5, F 1.58, G 1.93, H 1.49, I 1.62, K 1.9, L 1.82, M 2.1, N 2.21, P 1.11, Q 1.98, R 1.46, S 1.82, V 1.94, W 1.51, Y 1.6
S17: A 2.46, C 1.65, E 2.43, F 1.75, G 1.96, H 2.33, I 1.85, K 1.96, L 1.5, M 1.86, N 2.15, P 2.46, Q 2.45, R 2.56, T 2.61, V 4.43, W 1.02, Y 2.09
R18: C 1.51, D 1.78, F 1.79, G 2.54, H 1.91, I 1.15, L 1.86, M 2.29, N 2.18, P 1.74, S 1.94, T 2.15, V 1.4, Y 1.78
C19: A 1.94, D 2.03, E 2.66, F 2.65, G 2.32, H 1.84, I 2.64, K 1.96, L 2.68, M 2.06, N 3.89, P 2.03, Q 2.59, R 2.21, S 2.09, T 3.26, V 2.1, W 3.18, Y 1.88
P20: A 1.98, C 2.51, D 1.81, E 1.32, F 2.83, G 1.95, H 2.18, I 2.22, K 2.57, L 2.27, N 2.13, R 2.07, S 1.83, T 2.88, Y 1.44
R21: D 1.83, E 2.22, F 1.96, G 2.71, H 3.38, L 2.21, M 1.25, N 1.68, P 2.26, Q 3.16, S 1.88, T 2.1, V 1.63, W 2.46, Y 2.71
P22: C 3.11, E 2.27, F 1.8, G 2.15, H 2.38, I 1.72, K 2.18, M 1.5, N 2.72, Q 2.5, R 2.39, S 2.33, T 2.25, V 1.8, W 1.13, Y 1.32
C23: A 2.23, D 3.36, E 2.43, F 1.71, G 2.65, H 2.17, I 2.11, M 2.41, N 1.91, P 2.43, Q 2.42, S 2.67, T 2.37, V 1.85, Y 2.33
R24: A 2.2, C 1.77, D 1.6, E 2.14, F 1.75, H 1.69, I 1.65, K 2.65, L 1.6, M 2.8, N 1.61, P 2.35, Q 2.57, S 2.13, T 3.87, W 1.3, Y 1.67

Variants of: B2
Test: as above
Conditions: c terminus: a fixed tail appended

Protein stability index of substitutions, site by site:
S1: C 1.88, E 2.74, G 2.87, I 3.02, K 2.61, L 1.76, M 2.73, N 2.57, P 2.66, W 2.46
E2: A 1.99, F 2.9, G 2.28, H 2.19, I 2.12, L 1.42, N 1.68, S 2.43, Y 2.68
R3: A 3.86, C 2.4, D 2.82, F 2.18, G 2.19, H 2.76, K 1.63, L 2.49, M 2.99, N 2.48, P 3.56, Q 2, S 2.07, W 1.62, Y 1.86
P4: D 2.53, E 2.61, F 3.68, K 2.38, L 1.94, Q 2.95, R 1.59, V 1.26, W 1.73
L5: D 3.44, F 3.45, G 2.33, I 2.52, M 2.46, N 1.48, P 2.07, S 2, T 2.38, V 4.48, W 1.97, Y 2.53
E6: A 2.27, C 2.72, D 1.68, F 2.78, G 2.35, H 2.34, I 1.71, K 1.53, M 2.29, N 2.24, P 2.15, Q 2.49, S 1.93, T 1.29, V 2.63, W 1.62
D7: A 1.94, G 1.96, H 1.87, M 1.02, N 1.99, Q 1.43, R 1.79, T 1.88, V 1.9, W 1.29
L8: A 2.73, D 2.32, E 3.52, F 1.96, H 2.16, I 2.44, K 2.83, N 2.13, Q 1.47, V 1.64, W 1.87, Y 2.35
R9: A 2.34, C 3.37, D 2.31, E 2.85, F 1.63, H 2.56, I 2.17, K 1.92, M 1.42, N 2.84, P 2.1, Q 2.26, S 1.2, T 2.27, V 3.31, W 1.64, Y 2.26
L10: A 2.46, C 2.73, D 2.72, E 3.15, F 3.78, G 3.89, H 2.38, K 2.06, M 2.39, N 2.69, P 1.74, R 2.19, S 3.19, T 1.93
R11: A 1.92, C 1.52, F 1.79, I 1.41, N 2.58
